Three molecules from patent US20080125498A1, “TREATMENT OF NEURODEGENERATIVE DISEASES AND CONDITIONS USING PAR1 ANTAGONISTS” (priority 2001, published 2008) can be followed below.

The test concerns PAR1. Briefly: PI hydrolysis in hippocampal slices. The test is classed as cell-based, mouse. An excerpt:
PAR1 is a seven transmembrane G-protein coupled receptor that stimulates G-alpha-q to initiate phosphatidyl inositol (PI) hydrolysis. To ensure that PAR1 is functional in regions of the brain that are subject to ischemic damage in the mouse transient focal ischemia model, we tested the ability of several activators of PAR1 to initiate PI hydrolysis (Chung et al., 1997) in the hippocampus and striatum.
Since tPA activates plasminogen to form plasmin, we tested whether exogenously applied tPA could activate endogenous plasminogen in brain slices to form plasmin and activate PAR1.

Setting [1] is: wild type hippocampus / hippocampal slices.

B1: tPA: tissue plasminogen activator; activates plasminogen to form plasmin; thrombolytic agent (protein, UniProt P00750 36-562, looked up)
Tissue-type plasminogen …: SYQVICRDEKTQMIYQQHQSWLRPVLRSNRVEYCWCNSGRAQCHSVPVKSCSEPRCFNGGTCQQALYFSDFVCQCPEGFAGKCCEIDTRATCYEDQGISYRGTWSTAESGAECTNWNSSALAQKPYSGRRPDAIRLGLGNHNYCRNPDRDSKPWCYVFKAGKYSSEFCSTPACSEGNSDCYFGNGSAYRGTHSLTESGASCLPWNSMILIGKVYTAQNPSAQALGLGKHNYCRNPDGDAKPWCHVLKNRRLTWEYCDVPSCSTCGLRQYSQPQFRIKGGLFADIASHPWQAAIFAKHRRSPGERFLCGGILISSCWILSAAHCFQERFPPHHLTVILGRTYRVVPGEEEQKFEVEKYIVHKEFDDDTYDNDIALLQLKSDSSRCAQESSVVRTVCLPPADLQLPDWTECELSGYGKHEALSPFYSERLKEAHVRLYPSSRCTSQHLLNRTVTDNMLCAGDTRSGGPQANLHDACQGDSGGPLVCLNDGRMTLVGIISWGLGCGQKDVPGVYTKVTNYLDWIRDNMRP
In the case of B1, the PI hydrolysis entry runs as follows: (plasminogen-deficient mice) “did not increase PI hydrolysis”; under setting [1], “significantly increased PI hydrolysis”.

B2: plasmin: serine protease involved in blood clotting that can activate PAR1 (protein, UniProt P00747 20-580; P00747 581-810, looked up)
Plasmin heavy chain A: EPLDDYVNTQGASLFSVTKKQLGAGSIEECAAKCEEDEEFTCRAFQYHSKEQQCVIMAENRKSSIIIRMRDVVLFEKKVYLSECKTGNGKNYRGTMSKTKNGITCQKWSSTSPHRPRFSPATHPSEGLEENYCRNPDNDPQGPWCYTTDPEKRYDYCDILECEEECMHCSGENYDGKISKTMSGLECQAWDSQSPHAHGYIPSKFPNKNLKKNYCRNPDRELRPWCFTTDPNKRWELCDIPRCTTPPPSSGPTYQCLKGTGENYRGNVAVTVSGHTCQHWSAQTPHTHNRTPENFPCKNLDENYCRNPDGKRAPWCHTTNSQVRWEYCKIPSCDSSPVSTEQLAPTAPPELTPVVQDCYHGDGQSYRGTSSTTTTGKKCQSWSSMTPHRHQKTPENYPNAGLTMNYCRNPDADKGPWCFTTDPSVRWEYCNLKKCSGTEASVVAPPPVVLLPDVETPSEEDCMFGNGKGYRGKRATTVTGTPCQDWAAQEPHRHSIFTPETNPRAGLEKNYCRNPDGDVGGPWCYTTNPRKLYDYCDVPQCAAPSFDCGKPQVEPKKCPGR
Plasmin light chain B: VVGGCVAHPHSWPWQVSLRTRFGMHFCGGTLISPEWVLTAAHCLEKSPRPSSYKVILGAHQEVNLEPHVQEIEVSRLFLEPTRKDIALLKLSSPAVITDKVIPACLPSPNYVVADRTECFITGWGETQGTFGAGLLKEAQLPVIENKVCNRYEFLNGRVQSTELCAGHLAGGTDSCQGDSGGPLVCFEKDKYILQGVTSWGLGCARPNKPGVYVRVSRFVTWIEGVMRNN
modifications: plasmin
B2: the PI hydrolysis entry under setting [1] was “increased PI hydrolysis”.

B3: alpha-2-antiplasmin: plasmin inhibitor (protein, UniProt P08697 40-491, looked up)
Alpha-2-antiplasmin: NQEQVSPLTLLKLGNQEPGGQTALKSPPGVCSRDPTPEQTHRLARAMMAFTADLFSLVAQTSTCPNLILSPLSVALALSHLALGAQNHTLQRLQQVLHAGSGPCLPHLLSRLCQDLGPGAFRLAARMYLQKGFPIKEDFLEQSEQLFGAKPVSLTGKQEDDLANINQWVKEATEGKIQEFLSGLPEDTVLLLLNAIHFQGFWRNKFDPSLTQRDSFHLDEQFTVPVEMMQARTYPLRWFLLEQPEIQVAHFPFKNNMSFVVLVPTHFEWNVSQVLANLSWDTLHPPLVWERPTKVRLPKLYLKHQMDLVATLSQLGLQELFQAPDLRGISEQSLVVSGVQHQSTLELSEVGVEAAAATSIAMSRMSLSSFSVNRPFLFFIFEDTTGLPLFVGSVRNPNPSAPRELKEQQDSPGNKDFLQSLKGFPRGDKLFGPDLKLVPPMEEDYPQFGSPK
On to B3, for which the “inhibition of tPA-induced increase in PI hydrolysis” value (wild type hippocampal slices) is recorded as “inhibited the tPA-induced increase in PI hydrolysis”.
